This assay deals with T1, Rrp41/Rrp45 heterodimer (S. cerevisiae, UniProt P46948 1-246; Q05636 1-305).
T1 sequence (looked up) 1: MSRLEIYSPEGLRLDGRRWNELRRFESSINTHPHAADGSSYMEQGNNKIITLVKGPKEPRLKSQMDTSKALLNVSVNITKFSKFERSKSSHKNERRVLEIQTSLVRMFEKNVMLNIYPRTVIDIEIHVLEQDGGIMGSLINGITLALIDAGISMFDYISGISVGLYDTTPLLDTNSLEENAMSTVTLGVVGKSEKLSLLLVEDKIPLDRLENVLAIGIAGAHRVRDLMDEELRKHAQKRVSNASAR
T1 sequence (looked up) 2: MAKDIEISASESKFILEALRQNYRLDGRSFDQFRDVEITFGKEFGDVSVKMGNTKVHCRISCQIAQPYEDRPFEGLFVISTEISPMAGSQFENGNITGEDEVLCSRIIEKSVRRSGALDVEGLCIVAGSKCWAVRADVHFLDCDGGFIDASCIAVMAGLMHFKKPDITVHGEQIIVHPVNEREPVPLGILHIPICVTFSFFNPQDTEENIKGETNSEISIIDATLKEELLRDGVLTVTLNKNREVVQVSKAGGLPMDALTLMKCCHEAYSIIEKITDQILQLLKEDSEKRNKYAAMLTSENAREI
As to the kind of experiment: SEC. A general note: Size exclusion chromatography separates by hydrodynamic size, large species first.

B1: Rrp40 (natural protein, S. cerevisiae, UniProt Q08285 1-240, looked up)
chain: MSTFIFPGDSFPVDPTTPVKLGPGIYCDPNTQEIRPVNTGVLHVSAKGKSGVQTAYIDYSSKRYIPSVNDFVIGVIIGTFSDSYKVSLQNFSSSVSLSYMAFPNASKKNRPTLQVGDLVYARVCTAEKELEAEIECFDSTTGRDAGFGILEDGMIIDVNLNFARQLLFNNDFPLLKVLAAHTKFEVAIGLNGKIWVKCEELSNTLACYRTIMECCQKNDTAAFKDIAKRQFKEILTVKEE
As to B1, the binding result is “binds”.

B2: Rrp4 (natural protein, S. cerevisiae, UniProt P38792 1-359, looked up)
chain: MSEVITITKRNGAFQNSSNLSYNNTGISDDENDEEDIYMHDVNSASKSESDSQIVTPGELVTDDPIWMRGHGTYFLDNMTYSSVAGTVSRVNRLLSVIPLKGRYAPETGDHVVGRIAEVGNKRWKVDIGGKQHAVLMLGSVNLPGGILRRKSESDELQMRSFLKEGDLLNAEVQSLFQDGSASLHTRSLKYGKLRNGMFCQVPSSLIVRAKNHTHNLPGNITVVLGVNGYIWLRKTSQMDLARDTPSANNSSSIKSTGPTGAVSLNPSITRLEEESSWQIYSDENDPSISNNIRQAICRYANVIKALAFCEIGITQQRIVSAYEASMVYSNVGELIEKNVMESIGSDILTAEKMRGNGN
Take B2: the binding result is given as “binds”.

B3: Csl4 (natural protein, S. cerevisiae, UniProt P53859 1-292, looked up)
chain: MACNFQFPEIAYPGKLICPQYGTENKDGEDIIFNYVPGPGTKLIQYEHNGRTLEAITATLVGTVRCEEEKKTDQEEEREGTDQSTEEEKSVDASPNDVTRRTVKNILVSVLPGTEKGRKTNKYANNDFANNLPKEGDIVLTRVTRLSLQRANVEILAVEDKPSPIDSGIGSNGSGIVAAGGGSGAATFSVSQASSDLGETFRGIIRSQDVRSTDRDRVKVIECFKPGDIVRAQVLSLGDGTNYYLTTARNDLGVVFARAANGAGGLMYATDWQMMTSPVTGATEKRKCAKPF
B3: the binding result is given as “binds”.

The values above are taken from PMC8596991 (Methods in molecular biology (Clifton, N.J.), 2020).
